Measured values published in patent publication US20160356794A1 (Merck Sharp & Dohme, published 2016).
No end group written: not given here.

Tests used:
[1] = target: h-Tau 441 (human Tau isoform 2-441, Accession No. NP 005901.2) (human, UniProt P10636 2-758); test: SPR, BIAcore CM3 sensor chip, immobilized h-Tau 441
Procedure: The binding affinity (Kd) of the 10H8 and 19G10 mAbs was determined by BIAcore CM3 sensor chip (Biacore, Piscataway, N.J.) using immobilized h-Tau 441 as the capture protein.

PPAPKTPPSSGEPPK = target: T1, PPAPKTPPSSGEPPK (human); test: RepliTope peptide microarray, immobilized 15-mer, fluorescent secondary antibody
T1 construct: Synthetic peptide covalently immobilized on glass through a hydrophilic linker (RepliTope microarray)
T1 peptide: PPAPKTPPSSGEPPK
Source text: (§1) Epitope mapping of clones 10H8 and 19G10 was completed using JPT Peptide Technologies' RepliTope™ peptide microarrays. This technology consists in using purified synthetic peptides chemoselectively and covalently immobilized to the glass surface. An optimized hydrophilic linker moiety is inserted between the glass surface and the antigen derived peptide sequence to avoid false negatives caused by sterical hindrance. The peptides used spanned Tau mid region protein sequence of 166 amino acids between amino acid 104 and amino acid 269 (Tau 166). Peptides of 15 amino acids in length that extended downstream either 1 or 2 amino acids at a time were used in this experiment.
(§2) The assay was performed using an automated TECAN HS4X00 microarray processing station. Microarrays were washed, incubated with blocking buffer for 60 min at 30° C., and subsequently with clones […] and 19G10 diluted in blocking buffer for 120 min at 30° C. Microarrays were washed and incubated with secondary antibody diluted in blocking buffer for 45 min at 30° C. and then dried. The quantification was performed using high resolution fluorescence scanner. The resulting images were analyzed and quantified using spot-recognition software GenePix (Molecular Devices). For each spot, the mean signal intensity was extracted and expressed as arbitraty florescence units.

APKTPPSSGEPPKSG = target: T2, APKTPPSSGEPPKSG (human); test: as above
T2 construct: Synthetic peptide covalently immobilized on glass through a hydrophilic linker (RepliTope microarray)
T2 peptide: APKTPPSSGEPPKSG
Source text: as §1, §2

KTPPSSGEPPKSGDR = target: T3, KTPPSSGEPPKSGDR (human); test: as above
T3 construct: Synthetic peptide covalently immobilized on glass through a hydrophilic linker (RepliTope microarray)
T3 peptide: KTPPSSGEPPKSGDR
Source text: as §1, §2

PPSSGEPPKSGDRSG = target: T4, PPSSGEPPKSGDRSG (human); test: as above
T4 construct: Synthetic peptide covalently immobilized on glass through a hydrophilic linker (RepliTope microarray)
T4 peptide: PPSSGEPPKSGDRSG
Source text: as §1, §2

SSGEPPKSGDRSGYS [2] = target: T5, SSGEPPKSGDRSGYS (human, also: covalently immobilized on glass through a hydrophilic linker); test: as above
T5 construct: Synthetic peptide covalently immobilized on glass through a hydrophilic linker (RepliTope microarray)
T5 peptide: SSGEPPKSGDRSGYS
Source text: as §1, §2

GEPPKSGDRSGYSSP [3] = target: T6, GEPPKSGDRSGYSSP (human); test: as above
T6 construct: Synthetic peptide covalently immobilized on glass through a hydrophilic linker (RepliTope microarray)
T6 peptide: GEPPKSGDRSGYSSP
Source text: as §1, §2

PPKSGDRSGYSSPGS [4] = target: T7, PPKSGDRSGYSSPGS (human); test: as above
T7 construct: Synthetic peptide covalently immobilized on glass through a hydrophilic linker (RepliTope microarray)
T7 peptide: PPKSGDRSGYSSPGS
Source text: as §1, §2

KSGDRSGYSSPGSPG [5] = target: T8, KSGDRSGYSSPGSPG (human); test: as above
T8 construct: Synthetic peptide covalently immobilized on glass through a hydrophilic linker (RepliTope microarray)
T8 peptide: KSGDRSGYSSPGSPG
Source text: as §1, §2

GDRSGYSSPGSPGTP = target: T9, GDRSGYSSPGSPGTP (human); test: as above
T9 construct: Synthetic peptide covalently immobilized on glass through a hydrophilic linker (RepliTope microarray)
T9 peptide: GDRSGYSSPGSPGTP
Source text: as §1, §2

SSGEPPKSGDRSGYS [6] = target: T10, SSGEPPKSGDRSGYS (human, also: covalently immobilized on glass through a hydrophilic linker); test: as above
T10 construct: Synthetic peptide covalently immobilized on glass through a hydrophilic linker (RepliTope microarray)
T10 peptide: SSGEPPKSGDRSGYS
Source text: as §1, §2

SGEPPKSGDRSGYSS = target: T11, SGEPPKSGDRSGYSS (human, also: covalently immobilized on glass through a hydrophilic linker); test: as above
T11 construct: Synthetic peptide covalently immobilized on glass through a hydrophilic linker (RepliTope microarray)
T11 peptide: SGEPPKSGDRSGYSS
Source text: as §1, §2

GEPPKSGDRSGYSSP [7] = target: T12, GEPPKSGDRSGYSSP (human); test: as above
T12 construct: Synthetic peptide covalently immobilized on glass through a hydrophilic linker (RepliTope microarray)
T12 peptide: GEPPKSGDRSGYSSP
Source text: as §1, §2

EPPKSGDRSGYSSPG = target: T13, EPPKSGDRSGYSSPG (human); test: as above
T13 construct: Synthetic peptide covalently immobilized on glass through a hydrophilic linker (RepliTope microarray)
T13 peptide: EPPKSGDRSGYSSPG
Source text: as §1, §2

PPKSGDRSGYSSPGS [8] = target: T14, PPKSGDRSGYSSPGS (human); test: as above
T14 construct: Synthetic peptide covalently immobilized on glass through a hydrophilic linker (RepliTope microarray)
T14 peptide: PPKSGDRSGYSSPGS
Source text: as §1, §2

PKSGDRSGYSSPGSP = target: T15, PKSGDRSGYSSPGSP (human); test: as above
T15 construct: Synthetic peptide covalently immobilized on glass through a hydrophilic linker (RepliTope microarray)
T15 peptide: PKSGDRSGYSSPGSP
Source text: as §1, §2

KSGDRSGYSSPGSPG [9] = target: T16, KSGDRSGYSSPGSPG (human); test: as above
T16 construct: Synthetic peptide covalently immobilized on glass through a hydrophilic linker (RepliTope microarray)
T16 peptide: KSGDRSGYSSPGSPG
Source text: as §1, §2

SGDRSGYSSPGSPGT = target: T17, SGDRSGYSSPGSPGT (human, also: covalently immobilized on glass through a hydrophilic linker); test: as above
T17 construct: Synthetic peptide covalently immobilized on glass through a hydrophilic linker (RepliTope microarray)
T17 peptide: SGDRSGYSSPGSPGT
Source text: as §1, §2

Chain of h-Tau 441 (human Tau isoform 2-441, Accession No. NP 005901.2) (P10636 other isoform, or with tags, fused parts or gaps limits assumed): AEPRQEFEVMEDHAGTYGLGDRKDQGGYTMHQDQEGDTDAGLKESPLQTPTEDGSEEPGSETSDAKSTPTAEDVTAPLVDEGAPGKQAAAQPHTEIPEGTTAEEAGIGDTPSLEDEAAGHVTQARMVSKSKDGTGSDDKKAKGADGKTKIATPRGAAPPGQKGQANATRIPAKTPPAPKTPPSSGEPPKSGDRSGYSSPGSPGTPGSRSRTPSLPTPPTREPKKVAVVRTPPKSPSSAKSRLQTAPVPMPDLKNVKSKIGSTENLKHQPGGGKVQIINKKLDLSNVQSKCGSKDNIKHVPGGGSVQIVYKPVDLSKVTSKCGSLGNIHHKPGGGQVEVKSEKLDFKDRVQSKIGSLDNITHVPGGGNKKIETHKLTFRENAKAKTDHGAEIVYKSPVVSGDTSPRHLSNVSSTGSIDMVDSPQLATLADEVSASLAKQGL

B1: monoclonal antibody 19G10 (antibody, mouse IgG2b, V domains shown)
VH: QVTLKESGPGILQPSQTLSLTCSFSGFSLSTSGMGVGWIRQPSGKGLEWLAHIWWDDDKYYNAVLKSRLTISKDTSKNQVFLKIASVDTADTATYYCARIGIDGPYAMDYWGQGTSVTVSS
VL: DIVMSQSPSSLAVSIGEKVTMSCKSSQSLLYSNNQKNYLAWYQRKPGQSPKLLIYWASTRESGVPDRFTGSGSGTDFTLTITSVKAEDLAVYYCQQYYSYPLWTFGGGTKLEIK
notes: also called mAb 19G10; 19G10 mAb
Kd [1]: 6.3 nM | koff [1]: 0.000176 s⁻¹ | kon [1]: 25900 M⁻¹ s⁻¹ | Fluorescent Intensity (PPAPKTPPSSGEPPK): 892 arbitrary fluorescence units | Fluorescent Intensity (APKTPPSSGEPPKSG): 761 arbitrary fluorescence units | Fluorescent Intensity (KTPPSSGEPPKSGDR): 55800 arbitrary fluorescence units | Fluorescent Intensity (PPSSGEPPKSGDRSG): 62000 arbitrary fluorescence units | Fluorescent Intensity (SSGEPPKSGDRSGYS [2]): 62700 arbitrary fluorescence units | Fluorescent Intensity (GEPPKSGDRSGYSSP [3]): 58000 arbitrary fluorescence units | Fluorescent Intensity (PPKSGDRSGYSSPGS [4]): 53400 arbitrary fluorescence units | Fluorescent Intensity (KSGDRSGYSSPGSPG [5]): 1810 arbitrary fluorescence units | Fluorescent Intensity (GDRSGYSSPGSPGTP): 588 arbitrary fluorescence units | Fluorescent Intensity (SSGEPPKSGDRSGYS [6]): 55400 arbitrary fluorescence units | Fluorescent Intensity (SGEPPKSGDRSGYSS): 59700 arbitrary fluorescence units | Fluorescent Intensity (GEPPKSGDRSGYSSP [7]): 58900 arbitrary fluorescence units | Fluorescent Intensity (EPPKSGDRSGYSSPG): 63100 arbitrary fluorescence units | Fluorescent Intensity (PPKSGDRSGYSSPGS [8]): 58700 arbitrary fluorescence units | Fluorescent Intensity (PKSGDRSGYSSPGSP): 49600 arbitrary fluorescence units | Fluorescent Intensity (KSGDRSGYSSPGSPG [9]): 1550 arbitrary fluorescence units | Fluorescent Intensity (SGDRSGYSSPGSPGT): 619 arbitrary fluorescence units
